In patent publication US20230365659A1 (EPSILON MOLECULAR ENGINEERING, published 2023):

B1: Bacillus subtilis-derived VHH-COVE3 (VHH)
VHH: AEVQLVESGGGFVQAGGSLRLSCRVSAPTFMTYTMAWFRQAPGNEREFVAALSKNFVTTSYADSVKGRFTISRDNAKNTVYLQMNSLKPEDTAVYYCNVAWSDYEYLEVWGQGTLVTVSSGGGSHHHHHH
B2: Bacillus subtilis-derived VHH-COVE5 (VHH)
VHH: EVQLVESGGGLVQAGGSLRLSCTASDQIFDNYNMAWFRQSPGKEREFVAALSWGDSNTGYADSVKGRFTISRDNAKNTVYLQMNSLKPEDTAVYYCYAVTWLRGDYWGQGTQVTVSS
B3: Bacillus subtilis-derived VHH-COVE7 (VHH)
VHH: EVQLVESGGGLVQAGDSLRLSCTASGRTFSSCAMGWFRQAPGKEREFVAAISRGGGSTSYADSVKGRFTISKDRARNTAYLEMNSLKPEDTAIYYCYAVFPSGGDYWGQGTQVTVSS
B4: Bacillus subtilis-derived VHH-COVE8 (VHH)
VHH: EVQLVESGGGLVQPGGSLTLSCAASGQTFSSYNMAWFRQSPGKEREFVATISWGGGSTGYADSVKGRFTISRDHAKNTVYLQMKDLKPEDTGAYYCYLVGLFGIQASDYWGQGTQVTVSS
B5: Bacillus subtilis-derived VHH-COVE9 (VHH)
VHH: EVQLVESGGGLVQPGGSLRLSCAASGTIFSTNAMSWYRQAPGKQRELVAAITSGGNTNYADSVKGRFTISRDNAKNTVYLQMNSLKPEDTAVYYCNAPGVVTGSYDVRNYWGQGTQVTVSS
B6: Bacillus subtilis-derived VHH-COVE2 (VHH)
VHH: AEVQLVESGGGLVQAGDSLRLSCAATRRTSSTYAMGWFRQAPGKGLEWVAAISWDGGRTYYAESVKGRFTISRDNAKNTVYLQMNSLKPEDTAVYYCYSFGGSDFLMDYWGQGTQVTVSSGGGSHHHHHH
B7: VHH-COVE9 (on beads in Example 26, production host not stated) (VHH)
VHH: B5 VHH
B8: Bacillus subtilis-derived VHH-COVE6 (VHH)
VHH: EVQLVESGGGLVQAGGSLRLSCTASGRTWNIASMTWFRQAPGGKERTFVATIKWSDLATYYTDSVKGRFTISRGNSKNTVYLQMNSLKPEDTGVYFCYAITTGSPLLGGGMDFWGKGTLVTVSS
B9: Bacillus subtilis-derived VHH-COVE1 (VHH)
VHH: AEVQLVESGGGLVQPGGSLRLSCAASGFAFSSYPMYWVRQAPGKGLEWISFIDGEGTSTSYADSVKGRFTISRDNAKNTVYLQMNSLKPEDTAVYYCNALLRRYNYGFTFDNYWGQGTQVTVSSGGGSHHHHHH
B10: Bacillus subtilis-derived VHH-COVE4 (VHH)
VHH: AEVQLVESGGDVVQPGGSLRLSCAASGFTFTTYAMTWVRQAPGEGLEAVSTISGADGSTYYADSVKGRFTISRDNANNTVYLQMNSLKPEDTAVYYCAATPWYSASHTYWGQGTQVTVSSGGGSHHHHHH

The binders below were run against T1, SARS-CoV2 spike RBD variant strain (SPD-C52Hp, Acro Biosystems, K417N, E484K, N501Y) (SARS-CoV-2, UniProt P0DTC2 319-537) (assay: BLI (Octet), biotinylated RBD on SA sensor, VHH as analyte, 1:1 fit).
T1 construct: domain: RBD

Binder	Kd [nM]	koff [s⁻¹]	kon [M⁻¹ s⁻¹]
B1	265	0.0106	40000
B2	306	0.0625	204000
B3	93.7	0.00398	42400
B4	239	0.0191	79900
B5	10.9	0.00159	146000
B6	90.7	0.00529	58400

The binders below were run against T2, SARS-CoV-2 (2019-nCoV) spike RBD (L452Q, F490S) protein (His Tag) (Sino Biological, Inc.) (SARS-CoV-2, UniProt P0DTC2 319-541) (assay: pull-down with VHH-immobilized beads, SDS-PAGE of the eluate).
T2 construct: domain: RBD

Binder	binding result
B7	no binding (tested: 12.5 µg/mL)

These binders were tested against T3, SARS-CoV2 spike RBD variant (SRD-C52H2, Acro Biosystems, N440K) (SARS-CoV-2, UniProt P0DTC2 319-537) (assay: BLI (Octet), biotinylated RBD on SA sensor, VHH as analyte, 1:1 fit).
T3 construct: domain: RBD

Binder	Kd [nM]	koff [s⁻¹]	kon [M⁻¹ s⁻¹]
B1	15.4	0.000448	29200
B2	42.4	0.00178	42100
B3	24.2	0.00113	46600
B4	< 0.001	< 1e-07	74500
B5	12.5	0.00258	206000
B6	2.96	0.000491	166000

What follows are binders tested against T4, SARS-CoV2 spike RBD variant strain (SRD-C52H3, Acro Biosystems, E484K) (SARS-CoV-2, UniProt P0DTC2 319-537) in the same assay as above.
T4 construct: domain: RBD

Binder	Kd [nM]	koff [s⁻¹]	kon [M⁻¹ s⁻¹]
B2	626	0.0246	39200
B3	80.2	0.00707	88100
B4	211	0.0147	69700
B5	9.9	0.00307	310000
B6	34.4	0.00365	106000

Each binder was assayed against T5, SARS-CoV-2 full-length Spike Recombinant Antigen B.1.617 Mutation (Bio-Serv) (SARS-CoV-2, UniProt P0DTC2 14-1273) (assay: ELISA, VHH on nickel plate, spike in solution).
T5 construct: Bought

Binder	binding result
B2	no binding (tested: 500 ng/mL)
B3	no binding (tested: 500 ng/mL)
B4	no binding (tested: 500 ng/mL)
B5	no binding (tested: 500 ng/mL)
B8	no binding (tested: 500 ng/mL)
B6	no binding (tested: 500 ng/mL)
B9	no binding (tested: 500 ng/mL)
B10	no binding (tested: 500 ng/mL)

Each binder was assayed against SARS-CoV-2 (2019-nCoV) spike S1-Fc recombinant protein (Sino Biological, Inc.) (SARS-CoV-2, UniProt P0DTC2 16-685) (assay: not given).

Binder	Kd [nM]	koff [s⁻¹]	kon [M⁻¹ s⁻¹]
B1	0.924	9.75e-05	106000
B6	1.2	8.47e-05	70700

The binders below were run against SARS-CoV-2 full-length Spike Recombinant Antigen P.1 Mutation (Bio-Serv) (SARS-CoV-2, UniProt P0DTC2 14-1273) (assay: ELISA, VHH on nickel plate, spike in solution (0-500 ng/mL)).

Binder	absorbance (450 nm)
B1	0.97
B2	0.97
B3	0.97
B4	0.97
B5	0.97
B6	0.97

What follows are binders tested against SARS-CoV-2 full-length Spike Recombinant Antigen B.1.1.7 Mutation (Bio-Serv) (SARS-CoV-2, UniProt P0DTC2 14-1273) in the same assay as above.

Binder	absorbance (450 nm)	binding result
B1	0.97	–
B2	0.97	–
B3	0.97	–
B4	0.97	–
B5	0.97	–
B8	–	binds
B6	0.97	–
B9	–	binds
B10	–	binds

The binders below were run against SARS-CoV-2 full-length Spike Recombinant Antigen B.1.351 Mutation (Bio-Serv) (SARS-CoV-2, UniProt P0DTC2 14-1273) in the same assay as above.

Binder	absorbance (450 nm)
B1	0.97
B2	0.97
B3	0.97
B4	0.97
B5	0.97
B6	0.97

Each binder was assayed against T6, SARS-CoV-2 spike RBD variant strain (SPD-C52Hn, Acro Biosystems, N501Y) (SARS-CoV-2, UniProt P0DTC2 319-537) (assay: BLI (Octet), biotinylated RBD on SA sensor, VHH as analyte, 1:1 fit).
T6 construct: domain: RBD

Binder	Kd [nM]	koff [s⁻¹]	kon [M⁻¹ s⁻¹]
B2	11.6	0.00106	91100
B3	24	0.00186	73300
B4	28.8	0.00159	55300
B5	6.9	0.00267	386000
B6	4.01	0.000438	109000
